System: MS2 coat protein
Assay: apparent KD of MS2 coat protein; higher = weaker reporter binding
Settings: Eterna round: R107; input ligand: arginine 13.2 mM
In short: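 Illumina sequencing clusters were used for on-chip transcription of designed RNA switches. Titration with SNAP-549-labelled MS2 coat protein followed, in twofold steps from 0.7 or 1.5 nM to 3 µM in 100 mM Tris-HCl pH 7.5, 80 mM KCl, 4 mM MgCl2, without or with constant ligand. Apparent KD is each design's median of fits to normalised cluster binding curves.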

Sequence | apparent KD of MS2 coat protein
AGGUGACAUGAGGAUCACCCAUGUGGCUUACGAGGACCGGUACGGCCGCCACUCGGUGUGACCUCCGCAUUCACAUAAUAAUCUU [Rilala] | 37.4 nM
UGUAUGGACUGAAGGAGCGCCUCAAAUAACAUGAGGAUCACCCAUGUGGACAAAGUCCUUGGGCAGGUAGGUCGCAGUCCAUACU [ArgBX 5 #StaticStem #MS2Late] | 49.1 nM
AGACAUGAGGAUCACCCAUGUGAAGUGGAUACCAGCCGCAGCGAUGGCCCUUGGCAGCCAGCUUUGUGUCGAUACAUCCGCACUU [theeternabot_exclusion_MS2_Theo_A_2] | 16.9 nM
CGUGUGCGUUCUGAUACCAGAGACAUGAGGAUCACCCAUGUCCGAUCGUCCUGCCUCAGACUCCCUUGGCAGCAGGUUUUGUGCU [Exclusion Theophylline B GF4] | 29.5 nM
UAUAUAUAUAGUGAUACCAGCAGAGAAAACGUUUAUCCUAACAUGAGGAUCACCCAUGUAUGCCCUUGGCAGCGUUAUAUAUAUA [8.E] | 21.2 nM
CUUAUACAUGAGGAUCACCCAUGUGGUGAUACCAGCCACGAUCAAGGCCCUUGGCAGCACAAAGGGAAUAAUAUGAUUACAAAAC [theeternabot_sameState_MS2_Theo_A_6] | 117 nM
AUACAUGAGGAUCACCCAUGUCUUACGGAAGGAGCGAUCAAGAGAUCAGGUAGGUCGCCGUACAUGAGGAUCACCCAUGUAGGCG [EAA NP+V+V2 #9 DOUBLE] | 19.5 nM
AUUAAUAAUAUGUAGACGGCGGAGAAGAGACGAGGACCGGUACGGCCGCCACUCGUGUUAGUUAACAUGAGGAUCACCCAUGUUA [#09 Tryptophan A Same State] | 9.55 nM
UAUAUAUAUAUUGAUACCAGCAGAGAAAACAUAUAUCCUAACAUGAGGAUCACCCAUGUAUGCCCUUGGCAGCGAUAUAUAUAUA [8.A] | 24.9 nM
ACAUGAGGAUCACCCAUGUUCCUCAUUGAUACCAGUGAAUUUAGACGCCCUUGGCAGCGAGUUUUUUUAUAAGAUUUUUUUUUUU [6.I] | 239 nM
AAUGGCCGUACCGGAAGGGUGAUCCUCAAACGAGGACCGGUACGGCCGCCACUCGAUAACAUGAGGAUCACCCAUGUAAUACAUA [whbob_X-Trypto_V2.0] | 96.4 nM
AAUAACAUGAGGAUCACCCAUGUAAAAGAUACCAGAGUGAUGAUCCUCCCUUGGCAGCUUAACGCUGAUUGAUUACAAUCAGCGA [TheoAS 3 #Tail #MS2BeforeAptamer #BothOrNeither] | 46.4 nM
UUUUACAUGAGGAUCACCCAUGUACAUGGGCGAGGACCGGUACGGCCGCCACUCGUGGGACCCACGGGCCCGCUUAGUGGGUACA [LarryB_001] | 58.3 nM
GAGUACACUACGGCCGCCACUCAAGGAGCUACAUAGCUCCUAGACAUGAGGAUCACCCAUGUACCGAGGACCGGGUAGAUCCUUA [Same State Typrtophan B GF2] | 129 nM
UAUCGUCAGACGGCCGCCACUAGAACAUGAGGAUCACCCAUGUAAGUGGCUGGUUCAUGGGUGUCUAGGACCGGGUCUGACGAAU [(Trp1)-(Ms2)-(T)'-(M)'-(Trp2)_Design20] | 14.8 nM
GCACCAGGUACGGAUACCAGCUAUAGGCCCUAUGGGCGACAUGAGGAUCACCCAUGUAAUGGCCCUUGGCAGCUGUACCUGGUGC [SSThB NP+V+V2 #10 +-Same Structure] | 120 nM
UAUUUGGUGCGCGAGCGCUGGAUAAUUGAUACCAGUGAAGAAGAGCGCCCUUGGCAGCGAAUCCUAACAUGAGGAUCACCCAUGU [5.R] | 33.1 nM

Sequence | apparent KD of MS2 coat protein
GGUACAUGAGGAUCACCCAUGUAUUAGUGCCGAGGACCGGUACGGCCGCCACUCGCUUCACAUGAGGAUCACCCAUGUGUCACUG [SSTA DOUBLE!!! :-D #14] | 23.6 nM
UCCAGACAUGAGGAUCACCCAUGUUGUGAUACCAGAACCGUGGAGUUCCCUUGGCAGCACUAAGAAGUUCCUGGAUCAGCUAGCG [theeternabot_sameState_MS2_Theo_A_9] | 29.9 nM
AAUAAUAGGUGAUCUUGUGUCGUACCGUAACGAGGACCGGUACGGCCGCCACUCGAACAUGAGGAUCACCCAUGUAUGUAUGAUA [whbob_SS_trypto A_f7] | 57.8 nM
ACAUGAGGAUCACCCAUGUCACUCGUGUUCCGAGGACCGGUACGGCCGCCACUCGGUCCUCGCGAGGAUGGUCAAAGACUAUCCA [Omei Trp A SS B v2] | 37.1 nM
ACGACAUGAGGAUCACCCAUGUACUCUGAAGGAGCGUCGAUUACGACAGGUAGGUCGCAGGCUAAGGAUGGUGAUGCUCAAGACG [Exclusion Arginine A GF8] | 53.5 nM
AACAUGAGGAUCACCCAUGUAUUGGGUGAUACCAGCCUGAAUAAGGGCCCUUGGCAGCACCGCGCUAACUUUAUGUCUGCGAACC [Rebiercete] | 511 nM
UAUAAAAUAACAGAUACCAGCGUGUUAUAAAACAUGAGGAUCACCCAUGUAGUGAUCAAGCGCCCUUGGCAGCUGGUAUUUUAUG [7.C] | 92.3 nM
UACAGUACAACAGAUACCAGACAGUACUCUAGAUUGCAACAUGAGGAUCACCCAUGUAUAGUCCCUUGGCAGCUGUAAUGGGUGA [Theo B SS s1] | 142 nM
CUCCCGUGGUCGGCCGCCACUGGAGGCCUUGCGCGACAUGAGGAUCACCCAUGUGUGCCCGGCGUCAGGACCGGGAUCGCGUGAG [#1 Same State - Tryptophan B Attempt #12 (HarryS)] | 17.2 nM
ACCUGCGUUUGUUUCUUUCUGACGCAGGUUCGAGGACCGGUACGGCCGCCACUCGGACAUGAGGAUCACCCAUGUUUGAAAUGGG [#01 Exclusion Tryptophan A] | 90.4 nM
GUCUGAGUCUGAAGGAGCGACAUGAGGAUCACCCAUGUCUCCCGUUAUGGGAGUUCCUUAGGUCAGGUAGGUCGCAGACUCAGAC [#1 Exclusion - Arginine B Attempt #26 (Inspired by Omei)] | 60.9 nM
AUAGUCUUGAGUGAUACCAGACUACAUGAGGAUCACCCAUGUUUCUUUUGGUUAUCAUGUGUCCCUUGGCAGCACGCAUGUAUAG [JR_ExcTheophyB_Sub014] | 17.5 nM
AACCACAUGAGGAUCACCCAUGUGACCGCUCGAGGACCGGUACGGCCGCCACUCGUGGAGGGACUUAUGCGUUAUCCGGGUAAAU [theeternabot_sameState_MS2_Trp_A_29] | 16.9 nM
GGUGGGACUUGUGAUACCAGCCCAGUUCUAAUCGAACUGCACAUGAGGAUCACCCAUGUCGGCCCUUGGCAGCAUGAGUAUUUAU [Esceesor] | 146 nM
UUGUUGUUUGGAAGGAGCGUGUAUGAUUAAGAACAUGAGGAUCACCCAUGUUGUAGGGUAGCACAGGUAGGUCGCCGGGUGGUGG [11.V] | 34.8 nM
UCGUGUGUUUCGGAUACCAGUGAAAUCGAUACAUGAGGAUCACCCAUGUGAGAGGAUGUACACCCUUGGCAGCUGUCUGUAGCGG [asczmullin] | 26.9 nM
CCUUUUAUUAAUGAUACCAGCGUAUUAAGCAUCACCUUGGACAUGAGGAUCACCCAUGUACGCCCUUGGCAGCAUACCACUGGGU [theeternabot_exclusion_MS2_Theo_B_5] | 35.7 nM

Same assay, conditions: Eterna round: R107; input ligand: none

Sequence | apparent KD of MS2 coat protein
UGUAUGGACUGAAGGAGCGCCUCAAAUAACAUGAGGAUCACCCAUGUGGACAAAGUCCUUGGGCAGGUAGGUCGCAGUCCAUACU [ArgBX 5 #StaticStem #MS2Late] | 72.4 nM
AUACAUGAGGAUCACCCAUGUCUUACGGAAGGAGCGAUCAAGAGAUCAGGUAGGUCGCCGUACAUGAGGAUCACCCAUGUAGGCG [EAA NP+V+V2 #9 DOUBLE] | 32.3 nM
AUUAAUAAUAUGUAGACGGCGGAGAAGAGACGAGGACCGGUACGGCCGCCACUCGUGUUAGUUAACAUGAGGAUCACCCAUGUUA [#09 Tryptophan A Same State] | 11.8 nM
UUUUACAUGAGGAUCACCCAUGUACAUGGGCGAGGACCGGUACGGCCGCCACUCGUGGGACCCACGGGCCCGCUUAGUGGGUACA [LarryB_001] | 87.5 nM
ACAUGAGGAUCACCCAUGUCACUCGUGUUCCGAGGACCGGUACGGCCGCCACUCGGUCCUCGCGAGGAUGGUCAAAGACUAUCCA [Omei Trp A SS B v2] | 75.2 nM
ACGACAUGAGGAUCACCCAUGUACUCUGAAGGAGCGUCGAUUACGACAGGUAGGUCGCAGGCUAAGGAUGGUGAUGCUCAAGACG [Exclusion Arginine A GF8] | 87.7 nM
AACAUGAGGAUCACCCAUGUAUUGGGUGAUACCAGCCUGAAUAAGGGCCCUUGGCAGCACCGCGCUAACUUUAUGUCUGCGAACC [Rebiercete] | 54.1 nM
CUCCCGUGGUCGGCCGCCACUGGAGGCCUUGCGCGACAUGAGGAUCACCCAUGUGUGCCCGGCGUCAGGACCGGGAUCGCGUGAG [#1 Same State - Tryptophan B Attempt #12 (HarryS)] | 16.1 nM
GUCUGAGUCUGAAGGAGCGACAUGAGGAUCACCCAUGUCUCCCGUUAUGGGAGUUCCUUAGGUCAGGUAGGUCGCAGACUCAGAC [#1 Exclusion - Arginine B Attempt #26 (Inspired by Omei)] | 145 nM
UUGUUGUUUGGAAGGAGCGUGUAUGAUUAAGAACAUGAGGAUCACCCAUGUUGUAGGGUAGCACAGGUAGGUCGCCGGGUGGUGG [11.V] | 25.1 nM

Same assay, conditions: Eterna round: R107; input ligand: theophylline 20 uM

Sequence | apparent KD of MS2 coat protein
AGGUGACAUGAGGAUCACCCAUGUGGCUUACGAGGACCGGUACGGCCGCCACUCGGUGUGACCUCCGCAUUCACAUAAUAAUCUU [Rilala] | 131 nM
UGUAUGGACUGAAGGAGCGCCUCAAAUAACAUGAGGAUCACCCAUGUGGACAAAGUCCUUGGGCAGGUAGGUCGCAGUCCAUACU [ArgBX 5 #StaticStem #MS2Late] | 82.9 nM
AGACAUGAGGAUCACCCAUGUGAAGUGGAUACCAGCCGCAGCGAUGGCCCUUGGCAGCCAGCUUUGUGUCGAUACAUCCGCACUU [theeternabot_exclusion_MS2_Theo_A_2] | 22.9 nM
CGUGUGCGUUCUGAUACCAGAGACAUGAGGAUCACCCAUGUCCGAUCGUCCUGCCUCAGACUCCCUUGGCAGCAGGUUUUGUGCU [Exclusion Theophylline B GF4] | 56.7 nM
UAUAUAUAUAGUGAUACCAGCAGAGAAAACGUUUAUCCUAACAUGAGGAUCACCCAUGUAUGCCCUUGGCAGCGUUAUAUAUAUA [8.E] | 29.1 nM
CUUAUACAUGAGGAUCACCCAUGUGGUGAUACCAGCCACGAUCAAGGCCCUUGGCAGCACAAAGGGAAUAAUAUGAUUACAAAAC [theeternabot_sameState_MS2_Theo_A_6] | 566 nM
AUACAUGAGGAUCACCCAUGUCUUACGGAAGGAGCGAUCAAGAGAUCAGGUAGGUCGCCGUACAUGAGGAUCACCCAUGUAGGCG [EAA NP+V+V2 #9 DOUBLE] | 33.4 nM
AUUAAUAAUAUGUAGACGGCGGAGAAGAGACGAGGACCGGUACGGCCGCCACUCGUGUUAGUUAACAUGAGGAUCACCCAUGUUA [#09 Tryptophan A Same State] | 17.5 nM
UAUAUAUAUAUUGAUACCAGCAGAGAAAACAUAUAUCCUAACAUGAGGAUCACCCAUGUAUGCCCUUGGCAGCGAUAUAUAUAUA [8.A] | 28.1 nM
ACAUGAGGAUCACCCAUGUUCCUCAUUGAUACCAGUGAAUUUAGACGCCCUUGGCAGCGAGUUUUUUUAUAAGAUUUUUUUUUUU [6.I] | 839 nM
AAUGGCCGUACCGGAAGGGUGAUCCUCAAACGAGGACCGGUACGGCCGCCACUCGAUAACAUGAGGAUCACCCAUGUAAUACAUA [whbob_X-Trypto_V2.0] | 405 nM
AAUAACAUGAGGAUCACCCAUGUAAAAGAUACCAGAGUGAUGAUCCUCCCUUGGCAGCUUAACGCUGAUUGAUUACAAUCAGCGA [TheoAS 3 #Tail #MS2BeforeAptamer #BothOrNeither] | 128 nM
UUUUACAUGAGGAUCACCCAUGUACAUGGGCGAGGACCGGUACGGCCGCCACUCGUGGGACCCACGGGCCCGCUUAGUGGGUACA [LarryB_001] | 168 nM
GAGUACACUACGGCCGCCACUCAAGGAGCUACAUAGCUCCUAGACAUGAGGAUCACCCAUGUACCGAGGACCGGGUAGAUCCUUA [Same State Typrtophan B GF2] | 246 nM
UAUCGUCAGACGGCCGCCACUAGAACAUGAGGAUCACCCAUGUAAGUGGCUGGUUCAUGGGUGUCUAGGACCGGGUCUGACGAAU [(Trp1)-(Ms2)-(T)'-(M)'-(Trp2)_Design20] | 21.2 nM
GCACCAGGUACGGAUACCAGCUAUAGGCCCUAUGGGCGACAUGAGGAUCACCCAUGUAAUGGCCCUUGGCAGCUGUACCUGGUGC [SSThB NP+V+V2 #10 +-Same Structure] | 97.3 nM
UAUUUGGUGCGCGAGCGCUGGAUAAUUGAUACCAGUGAAGAAGAGCGCCCUUGGCAGCGAAUCCUAACAUGAGGAUCACCCAUGU [5.R] | 54.1 nM
